Residue numbers refer to the chain shown, from its start. In names and notes the source's numbering stands.
B1: HA-CCT2 (chaperonin subunit CCT2, wild type, N-terminal HA tag) (other)
chain: ASLSLAPVNIFKAGADEERAETARLTSFIGAIAIGDLVKSTLGPKGMDKILLSSGRDASLMVTNDGATILKNIGVDNPAAKVLVDMSRVQDDEVGDGTTSVTVLAAELLREAESLIAKKIHPQTIIAGWREATKAAREALLSSAVDHGSDEVKFRQDLMNIAGTTLSSKLLTHHKDHFTKLAVEAVLRLKGSGNLEAIHIIKKLGGSLADSYLDEGFLLDKKIGVNQPKRIENAKILIANTGMDTDKIKIFGSRVRVDSTAKVAEIEHAEKEKMKEKVERILKHGINCFINRQLIYNYPEQLFGAAGVMAIEHADFAGVERLALVTGGEIASTFDHPELVKLGSCKLIEEVMIGEDKLIHFSGVALGEACTIVLRGATQQILDEAERSLHDALCVLAQTVKDSRTVYGGGCSEMLMAHAVTQLANRTPGKEAVAMESYAKALRMLPTIIADNAGYDSADLVAQLRAAHSEGNTTAGLDMREGTIGDMAILGITESFQVKRQVLLSAAEAAEVILRVDNIIKAAPRKRVPDHHPC
notes: Expressed in HEK293T or U2OS from pFUGW-HA-CCT2; CCT genes were amplified from HEK293T cDNA; also called WT CCT2; HA-CCT2 WT; not shown: N-terminal HA tag
B2: HA-CCT2 mVIL (other)
chain: B1 chain with V512A, I513A, L514A
notes: also called CCT2 VIL mutated to alanine; not shown: N-terminal HA tag
B3: GST-HA-CCT2 with VLL and VIL mutated (purified) (other)
chain: B1 chain with V502A, L503A, L504A, V512A, I513A, L514A
notes: also called GST-CCT2s; CCT2 with mutation of VLL and VIL; not shown: N-terminal GST and HA tags
B4: HA-CCT2 mVLL (other)
chain: B1 chain with V502A, L503A, L504A
notes: also called CCT2 VLL mutated to alanine; not shown: N-terminal HA tag
B5: T7-GABARAP (expressed in cells) (other, UniProt O95166 1-116, looked up)
chain: MKFVYKEEHPFEKRRSEGEKIRKKYPDRVPVIVEKAPKARIGDLDKKKYLVPSDLTVGQFYFLIRKRIHLRAEDALFFFVNNVIPPTSATMGQLYQEHHEEDFFLYIAYSDESVYG
notes: not shown: T7 tag
B6: CCT2 domain3 peptide 7 mVL(I)L (peptide)
peptide: ILGITESFQVKRQAAASAAEAAEAAARVDN
notes: Synthetic peptide coupled to agarose beads; VLL and VIL replaced by alanines; also called peptide 7 mutant (mVL (I) L)
B7: GFP-FUS P525L (purified, after TEV digestion of MBP-TEV-GFP-FUS P525L) (other, UniProt P35637 1-526, looked up)
chain: MASNDYTQQATQSYGAYPTQPGQGYSQQSSQPYGQQSYSGYSQSTDTSGYGQSSYSSYGQSQNTGYGTQSTPQGYGSTGGYGSSQSSQSSYGQQSSYPGYGQQPAPSSTSGSYGSSSQSSSYGQPQSGSYSQQPSYGGQQQSYGQQQSYNPPQGYGQQNQYNSSSGGGGGGGGGGNYGQDQSSMSSGGGSGGGYGNQDQSGGGGSGGYGQQDRGGRGRGGSGGGGGGGGGGYNRSSGGYEPRGRGGGRGGRGGMGGSDRGGFNKFGGPRDQGSRHDSEQDNSDNNTIFVQGLGENVTIESVADYFKQIGIIKTNKKTGQPMINLYTDRETGKLKGEATVSFDDPPSAKAAIDWFDGKEFSGNPIKVSFATRRADFNRGGGNGRGGRGRGGPMGRGGYGGGGSGGGGRGGFPSGGGGGGGQQRAGDWKCPNPTCENMNFSWRNECNQCKAPKPDGPGGGPGGSHMGGNYGDDRRGGRGGYDRGGYRGRGGDRGGFRGGRGGGDRGGFGPGKMDSRGEHRQDRRERLY
notes: 2 uM protein, as liquid granules (phase separation) or as solid aggregates (shaken at 700 rpm); also called FUS P525L granules; not shown: GFP

Experiments:
T7-LC3B = T7-LC3B (UniProt Q9GZQ8 1-120); assay: co-IP of HA-CCT2 with T7-ATG8s in HEK293T
Excerpt: The cells were permeabilized with digitonin before fixation. [0136] (G) Quantification of LC3 around Q103-HTT IB (mean±SEM) as shown in (F). […] [0137] […] The cells were permeabilized with digitonin before immunoblot analysis. LE, long exposure; SE, short exposure. [0138] (I) Quantification of normalized Q103-HTT (mean±SEM) in (H). […] [0139] […] The VLIR motif VIL is highlighted in red. [0140] […] The data are representative of three independent experiments. [0141] […] The cells were permeabilized with digitonin before fixation. [0142] (M) Quantification of LC3 around IBs (mean±SEM) as shown in (L). […] [0143] […] [0144] (O) Quantification of normalized Q103-HTT (mean±SEM) in (N).
Co-immunoprecipitation was performed essentially as described before. In brief, 24 h after transfection, the cells were collected and lysed on ice for 30 min in co-IP buffer (50 mM Tris/HCl pH 7.4, 150 mM NaCl, 1 mM EDTA, 0.5% NP40) with protease inhibitor mixture, and the lysates were cleared by centrifugation. The resulting supernatants were incubated with indicated agarose or magnetic beads and rotated at 4° C. for 3 h. The agarose was washed five times with co-IP buffer. As for the BFP-tagged Q103, the supernatants were incubated with rabbit anti-BFP antibodies and Protein A/G PLUS-Agarose according to the manufacturers' protocol. […]

[1] = target: T1, T7-LC3C (expressed in cells) (UniProt Q9BXW4 1-126); assay: co-IP with T7-LC3C in HEK293T
T1 construct: Expressed from pCDNA3-T7-LC3C; not shown: T7 tag
Experimental: (§1) The data are representative of three independent experiments. [0146] […] The data are representative of three independent experiments. [0147] […] The data are representative of three independent experiments. [0148] […] The interaction of the peptides with T7-GABARAP or T7-GABARAPL1 proteins was analyzed by in vitro pull-down. The data are representative of three independent experiments. [0149] […] The data are representative of three independent experiments. [0150] […] [0151] (K) Quantification of Q103-HTT-GFP area/DAPI area (mean±SEM) as shown in [0152] (J). 48 h represents IB accumulation stage and 72 h represents clearance stage. P values are indicated (two-tailed t test, >20 views from three independent experiments). [0153] […] The data are representative of three independent experiments. [0154] […] The data are representative of three independent experiments. [0155] […] The data are representative of three independent experiments.
(§2) Co-immunoprecipitation was performed essentially as described before. In brief, 24 h after transfection, the cells were collected and lysed on ice for 30 min in co-IP buffer (50 mM Tris/HCl pH 7.4, 150 mM NaCl, 1 mM EDTA, 0.5% NP40) with protease inhibitor mixture, and the lysates were cleared by centrifugation. The resulting supernatants were incubated with indicated agarose or magnetic beads and rotated at 4° C. for 3 h. The agarose was washed five times with co-IP buffer.

[2] = target: T2, His-T7-LC3C (purified protein) (UniProt Q9BXW4 1-147); assay: in vitro pull-down of purified proteins, immunoblot
T2 construct: Purified on Ni sepharose; used in peptide and protein pull-downs; also called T7-LC3C protein; purified LC3C; not shown: His and T7 tags

[3] = target: B1; assay: co-IP of HA-CCT2 with T7-GABARAP in HEK293T
Experimental: as §1, §2

[4] = target: T2, His-T7-LC3C (purified protein); assay: peptide pull-down, immunoblot
Excerpt: The data are representative of three independent experiments. […] The cells were permeabilized with digitonin before fixation. [0136] (G) Quantification of LC3 around Q103-HTT IB (mean±SEM) as shown in (F). […] [0137] […] The cells were permeabilized with digitonin before immunoblot analysis. LE, long exposure; SE, short exposure. [0138] (I) Quantification of normalized Q103-HTT (mean±SEM) in (H). […] [0139] […] The VLIR motif VIL is highlighted in red. [0140] […] The data are representative of three independent experiments. [0141] […] The cells were permeabilized with digitonin before fixation. [0142] (M) Quantification of LC3 around IBs (mean±SEM) as shown in (L). […] [0143] […] [0144] (O) Quantification of normalized Q103-HTT (mean±SEM) in (N).
After washing, 2×SDS loading buffer was added to the beads, and immunoblot was performed as described previously.

[5] = target: T3, His-mRuby2-CCT2 (purified) (human, UniProt P78371 2-535); assay: recruitment of 4 uM mRuby2-CCT2 to FUS P525L granules in vitro, imaging
T3 construct: 4 uM added to FUS P525L granules in vitro; also called CCT2 protein; not shown: His tag and mRuby2
T3 sequence: B1 chain
Excerpt: [0179] […] [0180] […] [0181] […] [0182] […] [0184] […] [0185] […] [0186]

T1 sequence (Q9BXW4 1-126): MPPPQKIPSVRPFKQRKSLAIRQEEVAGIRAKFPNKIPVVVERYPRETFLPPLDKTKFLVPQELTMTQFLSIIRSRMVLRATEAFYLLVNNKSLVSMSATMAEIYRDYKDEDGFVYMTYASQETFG
T2 sequence (Q9BXW4 whole entry): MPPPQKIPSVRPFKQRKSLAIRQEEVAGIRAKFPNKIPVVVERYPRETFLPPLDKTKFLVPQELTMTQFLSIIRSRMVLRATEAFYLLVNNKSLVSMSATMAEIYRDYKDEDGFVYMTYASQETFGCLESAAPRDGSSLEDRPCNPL

Binder: B1
- binding result (T7-LC3B): binds

Binder: B2
- binding result [1]: no binding

Binder: B3
- binding result [2]: no binding

Binder: B4
- binding result [1]: no binding

Binder: B5
- binding result [3]: binds

Binder: B6
- binding result [4]: no binding

Binder: B7
- binding result [5]: binds

Reference: patent publication US20240350586A1 (TSINGHUA UNIVERSITY, published 2024)
